# B1: mouse Lphn2^Lec (Latrophilin 2 lectin domain, residues 30-137) (domain or fragment)
# chain: ALPFGLVRRELSCEGYSIDLRCPGSDVIMIESANYGRTDDKICDADPFQMENTDCYLPDAFKIMTQRCNNRTQCIVVTGSDVFPDPCPGTYKYLEVQYECVPYSKMLV
# modifications: biotinylated enzymatically in vivo at a C-terminal AviTag
# Key:
# [1] = biological target: chicken Ten2^ecto P1680L mutant (residues 596-2802) (chicken, UniProt Q9DER5 596-2802, P1680L); assay: SPR
# [2] = biological target: chicken Ten2^ecto wild type (residues 596-2802) (chicken, UniProt Q9DER5 596-2802); assay: SPR
binder,measurement,setting,value
B1,Kd,[1],740 nM
same,Kd,[2],790 nM

# — paper PMC5851990 (2018)
